{"source": "patent US20200024322A1", "about": "(Eli Lilly, published 2020)", "binders": {"B1": {"name": "Example 135 (peptide)", "peptide": "H[Aib]NGTFTSDYSILLDKK([AEEA-AEEA-γGlu-C20 diacid])AQ[Aib]AFIEYLIEGGPSSGAPPPS-NH2", "modifications": "N-terminus assumed", "SMILES": "CC[C@H](C)[C@H](NC(=O)[C@H](CC(C)C)NC(=O)[C@H](Cc1ccc(O)cc1)NC(=O)[C@H](CCC(=O)O)NC(=O)[C@@H](NC(=O)[C@H](Cc1ccccc1)NC(=O)[C@H](C)NC(=O)C(C)(C)NC(=O)[C@H](CCC(N)=O)NC(=O)[C@H](C)NC(=O)[C@H](CCCCNC(=O)COCCOCCNC(=O)COCCOCCNC(=O)CC[C@H](NC(=O)CCCCCCCCCCCCCCCCCCC(=O)O)C(=O)O)NC(=O)[C@H](CCCCN)NC(=O)[C@H](CC(=O)O)NC(=O)[C@H](CC(C)C)NC(=O)[C@H](CC(C)C)NC(=O)[C@@H](NC(=O)[C@H](CO)NC(=O)[C@H](Cc1ccc(O)cc1)NC(=O)[C@H](CC(=O)O)NC(=O)[C@H](CO)NC(=O)[C@@H](NC(=O)[C@H](Cc1ccccc1)NC(=O)[C@@H](NC(=O)CNC(=O)[C@H](CC(N)=O)NC(=O)C(C)(C)NC(=O)[C@@H](N)Cc1c[nH]cn1)[C@@H](C)O)[C@@H](C)O)[C@@H](C)CC)[C@@H](C)CC)C(=O)N[C@@H](CCC(=O)O)C(=O)NCC(=O)NCC(=O)N1CCC[C@H]1C(=O)N[C@@H](CO)C(=O)N[C@@H](CO)C(=O)NCC(=O)N[C@@H](C)C(=O)N1CCC[C@H]1C(=O)N1CCC[C@H]1C(=O)N1CCC[C@H]1C(=O)N[C@@H](CO)C(N)=O"}, "B2": {"name": "Example 1 (peptide)", "peptide": "YXEGTXTSDYSIXLDEKAQXEFIXYLIEGGPSSGAPPPS", "modifications": "Aib2; αMeF(2F)6; αMeL13; K17((2-[2-(2-Amino-ethoxy)-ethoxy]-acetyl)2-(γ-Glu)-CO-(CH2)18-CO2H); Aib20; D-Glu24; C-terminal NH2"}, "B3": {"name": "Example 183 (peptide)", "peptide": "B2 peptide with Y10L", "modifications": "not printed (the compound name of this Example is missing from the table of Examples 6-287)"}, "B4": {"name": "Example 191 (peptide)", "peptide": "B2 peptide with Y10V", "modifications": "Aib2; αMeF(2F)6; αMeL13; K17((2-[2-(2-Amino-ethoxy)-ethoxy]-acetyl)2-(γ-Glu)-CO-(CH2)18-CO2H); Aib20; D-Glu24; C-terminal NH2"}, "B5": {"name": "Example 211 (peptide)", "peptide": "B2 peptide with E16K", "modifications": "Aib2; αMeF(2F)6; αMeL13; K17((2-[2-(2-Amino-ethoxy)-ethoxy]-acetyl)-(γ-Glu)-(2-[2-(2-Amino-ethoxy)-ethoxy]-acetyl)-CO-(CH2)18-CO2H); Aib20; D-Glu24; C-terminal NH2"}, "B6": {"name": "Example 49 (peptide)", "peptide": "Y[Aib]EGTFTSDYSILLDKIAQ[Aib]AFIEYLIEGGPSSGAPPPSK([AEEA-AEEA-γGlu-C20 diacid])-NH2", "modifications": "N-terminus assumed", "SMILES": "CC[C@H](C)[C@H](NC(=O)[C@H](CCCCN)NC(=O)[C@H](CC(=O)O)NC(=O)[C@H](CC(C)C)NC(=O)[C@H](CC(C)C)NC(=O)[C@@H](NC(=O)[C@H](CO)NC(=O)[C@H](Cc1ccc(O)cc1)NC(=O)[C@H](CC(=O)O)NC(=O)[C@H](CO)NC(=O)[C@@H](NC(=O)[C@H](Cc1ccccc1)NC(=O)[C@@H](NC(=O)CNC(=O)[C@H](CCC(=O)O)NC(=O)C(C)(C)NC(=O)[C@@H](N)Cc1ccc(O)cc1)[C@@H](C)O)[C@@H](C)O)[C@@H](C)CC)C(=O)N[C@@H](C)C(=O)N[C@@H](CCC(N)=O)C(=O)NC(C)(C)C(=O)N[C@@H](C)C(=O)N[C@@H](Cc1ccccc1)C(=O)N[C@H](C(=O)N[C@@H](CCC(=O)O)C(=O)N[C@@H](Cc1ccc(O)cc1)C(=O)N[C@@H](CC(C)C)C(=O)N[C@H](C(=O)N[C@@H](CCC(=O)O)C(=O)NCC(=O)NCC(=O)N1CCC[C@H]1C(=O)N[C@@H](CO)C(=O)N[C@@H](CO)C(=O)NCC(=O)N[C@@H](C)C(=O)N1CCC[C@H]1C(=O)N1CCC[C@H]1C(=O)N1CCC[C@H]1C(=O)N[C@@H](CO)C(=O)N[C@@H](CCCCNC(=O)COCCOCCNC(=O)COCCOCCNC(=O)CC[C@H](NC(=O)CCCCCCCCCCCCCCCCCCC(=O)O)C(=O)O)C(N)=O)[C@@H](C)CC)[C@@H](C)CC"}, "B7": {"name": "Example 50 (peptide)", "peptide": "Y[Aib]EGTFTSDYSILLDKK([AEEA-AEEA-γGlu-C20 diacid])AQ[Aib]AFIEYLIEGGPSSG-NH2", "modifications": "N-terminus assumed", "SMILES": "CC[C@H](C)[C@H](NC(=O)[C@H](CC(C)C)NC(=O)[C@H](Cc1ccc(O)cc1)NC(=O)[C@H](CCC(=O)O)NC(=O)[C@@H](NC(=O)[C@H](Cc1ccccc1)NC(=O)[C@H](C)NC(=O)C(C)(C)NC(=O)[C@H](CCC(N)=O)NC(=O)[C@H](C)NC(=O)[C@H](CCCCNC(=O)COCCOCCNC(=O)COCCOCCNC(=O)CC[C@H](NC(=O)CCCCCCCCCCCCCCCCCCC(=O)O)C(=O)O)NC(=O)[C@H](CCCCN)NC(=O)[C@H](CC(=O)O)NC(=O)[C@H](CC(C)C)NC(=O)[C@H](CC(C)C)NC(=O)[C@@H](NC(=O)[C@H](CO)NC(=O)[C@H](Cc1ccc(O)cc1)NC(=O)[C@H](CC(=O)O)NC(=O)[C@H](CO)NC(=O)[C@@H](NC(=O)[C@H](Cc1ccccc1)NC(=O)[C@@H](NC(=O)CNC(=O)[C@H](CCC(=O)O)NC(=O)C(C)(C)NC(=O)[C@@H](N)Cc1ccc(O)cc1)[C@@H](C)O)[C@@H](C)O)[C@@H](C)CC)[C@@H](C)CC)C(=O)N[C@@H](CCC(=O)O)C(=O)NCC(=O)NCC(=O)N1CCC[C@H]1C(=O)N[C@@H](CO)C(=O)N[C@@H](CO)C(=O)NCC(N)=O"}}, "key": {"human GIP receptor": {"target": "T1, human GIP receptor (human, UniProt P48546 22-466)", "T1 construct": "whole, on cells; Used as crude membranes of stably transfected CHO cells; also called hGIPR", "T1 sequence (looked up)": "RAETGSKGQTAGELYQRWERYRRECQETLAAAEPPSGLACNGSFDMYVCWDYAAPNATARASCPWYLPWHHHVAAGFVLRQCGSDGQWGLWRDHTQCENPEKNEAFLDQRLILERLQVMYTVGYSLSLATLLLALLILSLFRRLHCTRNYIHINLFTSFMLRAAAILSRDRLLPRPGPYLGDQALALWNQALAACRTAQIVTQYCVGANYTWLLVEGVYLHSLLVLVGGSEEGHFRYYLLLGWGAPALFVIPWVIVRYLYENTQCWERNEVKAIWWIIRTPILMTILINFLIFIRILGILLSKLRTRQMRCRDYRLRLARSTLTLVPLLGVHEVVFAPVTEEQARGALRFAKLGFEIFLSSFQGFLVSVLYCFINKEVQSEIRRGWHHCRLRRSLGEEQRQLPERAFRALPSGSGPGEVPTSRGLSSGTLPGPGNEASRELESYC", "experiment": "SPA, [125I]-GIP displacement, hGIPR membranes"}, "human glucagon receptor": {"target": "T2, human glucagon receptor (human, UniProt P47871 26-477)", "T2 construct": "whole, on cells; Used as crude membranes of stably transfected HEK293 cells; also called hGcgR; hGLcgR", "T2 sequence (P47871 26-477)": "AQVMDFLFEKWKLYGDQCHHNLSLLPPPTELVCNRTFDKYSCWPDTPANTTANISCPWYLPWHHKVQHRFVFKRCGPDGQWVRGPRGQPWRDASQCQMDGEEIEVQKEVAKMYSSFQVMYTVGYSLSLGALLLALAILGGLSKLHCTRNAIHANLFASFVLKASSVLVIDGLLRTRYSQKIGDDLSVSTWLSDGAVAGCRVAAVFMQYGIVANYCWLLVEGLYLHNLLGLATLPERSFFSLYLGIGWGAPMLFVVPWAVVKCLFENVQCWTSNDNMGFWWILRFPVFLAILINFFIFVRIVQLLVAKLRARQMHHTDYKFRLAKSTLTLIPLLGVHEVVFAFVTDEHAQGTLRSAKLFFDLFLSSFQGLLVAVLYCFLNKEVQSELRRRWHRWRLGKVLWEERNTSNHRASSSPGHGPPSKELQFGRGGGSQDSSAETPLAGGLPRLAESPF", "experiment": "SPA, [125I]-Gcg displacement, hGcgR membranes"}, "human GLP-1 receptor": {"target": "T3, human GLP-1 receptor (human, UniProt P43220 24-463)", "T3 construct": "whole, on cells; Used as crude membranes of stably transfected HEK293 cells; also called hGLP1R; hGLP-1R", "experiment": "SPA, [125I]-GLP-1 displacement, hGLP-1R membranes"}}, "note": "Where a chain is given by its changes, count along the chain named. Numbered stars: 1 amine (or outer) side, 2 acyl side, 3 side chain; on linkers, the order of the positions; unused ones are H or OH. Square brackets hold non-standard residues; d marks the D form. Side chains are listed from the residue outwards. Ends that are not written are not given here. * marks the point of attachment. C20 diacid = O=C(O)CCCCCCCCCCCCCCCCCCC(=O)*; γGlu = O=C(O)[C@H](CCC(=O)[*:2])N[*:1]; AEEA = NCCOCCOCC(=O)O; Aib = CC(C)(N)C(=O)O", "data": [{"binder": "B1", "values": [{"measurement": "Ki", "setting": "human GIP receptor", "result": 0.161, "unit": "nM"}, {"measurement": "Ki", "setting": "human glucagon receptor", "result": 454, "unit": "nM"}, {"measurement": "Ki", "setting": "human GLP-1 receptor", "result": 3.01, "unit": "nM"}]}, {"binder": "B2", "values": [{"measurement": "Ki", "setting": "human GIP receptor", "result": 0.0546, "unit": "nM"}, {"measurement": "Ki", "setting": "human glucagon receptor", "result": 207, "unit": "nM"}, {"measurement": "Ki", "setting": "human GLP-1 receptor", "result": 6.67, "unit": "nM"}]}, {"binder": "B3", "values": [{"measurement": "Ki", "setting": "human GIP receptor", "result": 0.0869, "unit": "nM"}, {"measurement": "Ki", "setting": "human glucagon receptor", "result": 304, "unit": "nM"}, {"measurement": "Ki", "setting": "human GLP-1 receptor", "result": 4.11, "unit": "nM"}]}, {"binder": "B4", "values": [{"measurement": "Ki", "setting": "human GIP receptor", "result": 0.144, "unit": "nM"}, {"measurement": "Ki", "setting": "human glucagon receptor", "result": 348, "unit": "nM"}, {"measurement": "Ki", "setting": "human GLP-1 receptor", "result": 4.52, "unit": "nM"}]}, {"binder": "B5", "values": [{"measurement": "Ki", "setting": "human GIP receptor", "result": 0.0243, "unit": "nM"}, {"measurement": "Ki", "setting": "human glucagon receptor", "result": 131, "unit": "nM"}, {"measurement": "Ki", "setting": "human GLP-1 receptor", "result": 2.64, "unit": "nM"}]}, {"binder": "B6", "values": [{"measurement": "Ki", "setting": "human GIP receptor", "result": 0.087, "unit": "nM"}, {"measurement": "Ki", "setting": "human glucagon receptor", "result": 236, "unit": "nM"}, {"measurement": "Ki", "setting": "human GLP-1 receptor", "result": 12.3, "unit": "nM"}]}, {"binder": "B7", "values": [{"measurement": "Ki", "setting": "human GIP receptor", "result": 0.0568, "unit": "nM"}, {"measurement": "Ki", "setting": "human glucagon receptor", "result": 220, "unit": "nM"}, {"measurement": "Ki", "setting": "human GLP-1 receptor", "result": 4.71, "unit": "nM"}]}]}
